Measured values taken from US20130309248A1.
Changes are numbered by the printed parent chain.

B1: CR8052 (antibody, V domains shown)
VH: DIQLTQSPSSLSASVGDRVTITCRASQGINTYLNWYQQKPGKAPKVLIFAASTLQSGVPSRFSGSGSGTEFTLNINNLQPEDFATYYCQQSYSTAIT
VL: EVQLVESGGGVVQPGRSLRLSCAASGFSFTTYGMHWVRQAPGKGLEWVAFIWYDGSNKHYQDSVKGRFTISKDNSNNMLYLQMDSLRVADTAVYYCVRDGGYSTWEWYFDL
B2: CR8041 (antibody, V domains shown)
VH: QVQLVQSGAEVKKPGASVKVSCQASGYTFTSFGLSWVRQAPGQGPEWMGWISAYNGEIKYAQKFQGRVSMTTDTSTRTAYMEVRSLRPDDTAVYYCAREPPLYFSSWSLDF
VL: EIVLTQSPGTLSLSPGERATLSCRASQSVSSNYLAWFQQKPGQAPRLLIYGASRRATGIPDRFSGSGSGTDFTLTISRLEPEDFAVYYCQQYDSSPRT
B3: CR8039 (antibody, V domains shown)
VH: QLQLQESGPGLVKPSETLSLTCTVSGGSIGSYYWSWIRQPPGKGLEWIGYIYYRGGTSYNPSLKSRVTISVDTSKSQFTLKLNSVTAADTAVYYCARKDWGSAAGSVWYFDL
VL: QSALTQPPSASGSPGQSVTISCTGTSSDVGGYNYVSWYQQHPGKAPKLMIREVSKRPSGVPDRFSGSKSGNTASLTVSGLQAEDEAEYYCSSYAGSNNLI
B4: CR8001 (antibody, V domains shown)
VH: EVQLVESGGGLIQPGGSLRLSCAASGFTVSSNYVSWVRQAPGKGLEWLSLIYTGGTTYYADSVKGRFTISRDNSKNTVFLQMNSLRAEDAAMYYCARVSALRFLQWPNYAMDV
VL: QSALTQPASVSGSPGRSITISCSGTRSDVGGHNYVSWYQQHPGKAPKLMIYEVSHRPSGVSNRFSGSKSGSTASLTISGLQSEDEADYYCSSYTGEGPLGV
B5: CR8050 (antibody, V domains shown)
VH: EIVMTQSPGTLSLSPGERATLSCRASQSVSRNYLAWYQQKPGLAPRLLISGASSRATGVPDRFSGRGSDTDFTLTISRLEPEDFAVYYCQHYGSVLVA
VL: QVQLQESGPGLVKPSETLSLTCTVSGGSVSSGTYYWSWIRQPPGKGLEWIGDISYSGSTNYNPSLKSRVTISRDTSKNLVSLKLTSVTAADTAVHYCARAMAAYNYDRGGYNDYYYMDV
B6: CR8003 (antibody, V domains shown)
VH: EVQLVETGGDLVQPGGSLRLSCSASEFSFSSYWMSWVRQAPGKGLEWVANMKQDGSEKYYVDSVKGRFTISRDNAKNSLYLQMNSLRGEDTAVYYCARGSCDDSWTGCHDAFDI
VL: VLTQPPSVSVAPGQTARIACGGNNIGSKSVHWYQQKPGQAPVLVVYDDSARPSGIPERFSGSNSGNTATLTISRVEAGDEADYYCQVWESGSDLRLL
B7: CR8015 (antibody, V domains shown)
VH: B6 VH with E1Q, V5Q, T7S
VL: VLTQPPSVSVAPGQTAKITCGGDNIGRKSVHWYQQKPGLAPVLVVNDNSDRPSGIPARFSGSNSGNTATLTISRVEAGDEADYYCHVWGSSRDHYV
B8: CR8017 (antibody, V domains shown)
VH: B6 VH
VL: SSELTQDPAVSVALGQTVRITCQGDSLRSYYASWYQQKPGQAPVLVIYAKTNRPSGIPDRFSGSTSGNTASLTITGAQAEDEADYYCNSRDSSGNHVV
B9: CR8016 (antibody, V domains shown)
VH: B6 VH with T7S
VL: QSVVTQPPSVSGAPGQRVTISCTGSSSNIGAGYDVHWYQQLPGTAPKLLIYGNNNRPSGVPDRFSGSRSGPLALLAITGLQAEDEADYYCQSYDSSLSVYV
B10: CR8049 (antibody, V domains shown)
VH: QVTLKESGPVLVKPKETLTLTCTVSGFSLSNTRMGVSWIRQPPGKALEWLAHIFSNDETSYRTSLKRRLTISQDISKSQVVLSMTNVDPADTATYFCARIGSGYESSAYSTWLDP
VL: QVQLQQWGAGLLKPSETLSLTCAVYGGSFTDHYWSWIRQSPGKGLEWIGEVVHSGDTNYTPSLRNRVSISVDSSKNQFSLRLGSVTAADTAVYYCARGRNVAVVGAIQRHYDY
B11: CR8018 (antibody, V domains shown)
VH: B6 VH
VL: B4 VL with R16Q, S23T, R26S, H32Y

Each binder was assayed against full-length recombinant H7 HA (A/Netherlands/219/2003) on PER.C6 cells (influenza A virus (H7N7)) (assay: FACS, IgG 5 µg/ml, HA-expressing PER.C6 cells; untransfected MFI 4).

| Binder | MFI [MFI] |
| --- | --- |
| B1 | 5 |
| B2 | 120 |
| B3 | 4 |
| B4 | 106 |

The binders below were run against full-length recombinant H3 HA (A/Wisconsin/67/2005) on PER.C6 cells (influenza A virus (H3N2)) in the same assay as above.

| Binder | MFI [MFI] |
| --- | --- |
| B1 | 364 |
| B2 | 364 |
| B3 | 503 |
| B4 | 763 |

What follows are binders tested against full-length recombinant H1 HA (A/New Caledonia/20/1999) on PER.C6 cells (influenza A virus (H1N1)) in the same assay as above.

| Binder | MFI [MFI] |
| --- | --- |
| B1 | 4 |
| B2 | 4 |
| B3 | 4 |
| B4 | 100 |

These binders were tested against 3 H1N1 strains (1999-2007) (assay: cell-based or functional assay).

| Binder | SK50 titer [µg/mL] |
| --- | --- |
| B2 | > 40 |

Each binder was assayed against full-length recombinant H7 HA (A/Netherlands/219/2003) on PER.C6 cells (influenza A virus (H7N7)) (assay: FACS, IgG 5 µg/ml, HA-expressing PER.C6 cells; untransfected MFI 6).

| Binder | MFI [MFI] |
| --- | --- |
| B5 | 6 |

The binders below were run against full-length recombinant H3 HA (A/Wisconsin/67/2005) on PER.C6 cells (influenza A virus (H3N2)) in the same assay as above.

| Binder | MFI [MFI] |
| --- | --- |
| B5 | 282 |

The binders below were run against full-length recombinant H1 HA (A/New Caledonia/20/1999) on PER.C6 cells (influenza A virus (H1N1)) in the same assay as above.

| Binder | MFI [MFI] |
| --- | --- |
| B5 | 8 |

Each binder was assayed against full-length recombinant H7 HA (A/Netherlands/219/2003) on PER.C6 cells (influenza A virus (H7N7)) (assay: FACS, IgG 5 µg/ml, HA-expressing PER.C6 cells; untransfected MFI 3).

| Binder | MFI [MFI] |
| --- | --- |
| B6 | 5 |
| B7 | 4 |
| B8 | 4 |
| B9 | 5 |
| B10 | 4 |
| B11 | 4 |

Each binder was assayed against full-length recombinant H3 HA (A/Wisconsin/67/2005) on PER.C6 cells (influenza A virus (H3N2)) in the same assay as above.

| Binder | MFI [MFI] |
| --- | --- |
| B6 | 657 |
| B7 | 600 |
| B8 | 558 |
| B9 | 840 |
| B10 | 542 |
| B11 | 348 |

Each binder was assayed against full-length recombinant H1 HA (A/New Caledonia/20/1999) on PER.C6 cells (influenza A virus (H1N1)) in the same assay as above.

| Binder | MFI [MFI] |
| --- | --- |
| B6 | 3 |
| B7 | 4 |
| B8 | 3 |
| B9 | 3 |
| B10 | 3 |
| B11 | 3 |

Each binder was assayed against HA of virus A/Panama/2000/1999 (H3N2) (influenza A virus (H3N2)) (assay: cell-based or functional assay).

| Binder | Neutralization titer SK50 [µg/mL] | SK50 titer [µg/mL] |
| --- | --- | --- |
| B1 | 21.9 | – |
| B6 | > 40 | – |
| B7 | > 40 | – |
| B8 | > 40 | – |
| B9 | 28.3 | – |
| B5 | 6.5 | – |
| B10 | > 40 | – |
| B3 | 4.6 | – |
| B4 | > 40 | > 40 |
| B11 | > 40 | – |

These binders were tested against HA of virus A/Brisbane/59/2007 (H1N1) (influenza A virus (H1N1)) (assay: cell-based or functional assay).

| Binder | Neutralization titer SK50 [µg/mL] |
| --- | --- |
| B1 | > 40 |
| B6 | > 40 |
| B7 | > 40 |
| B8 | > 40 |
| B9 | > 40 |
| B10 | > 40 |
| B3 | > 40 |
| B4 | > 40 |
| B11 | > 40 |

The binders below were run against HA of virus A/Johannesburg/33/94 (H3N2) (influenza A virus (H3N2)) (assay: cell-based or functional assay).

| Binder | Neutralization titer SK50 [µg/mL] | SK50 titer [µg/mL] |
| --- | --- | --- |
| B1 | > 40 | – |
| B6 | > 40 | – |
| B7 | > 40 | – |
| B8 | > 40 | – |
| B9 | > 40 | – |
| B5 | 1.49 | – |
| B10 | > 40 | – |
| B3 | 1.33 | – |
| B4 | 6.51 | 6.5 |
| B11 | > 40 | – |

The binders below were run against HA of virus A/Chick/Germany/N/49 (H10) (influenza A virus (H10)) (assay: cell-based or functional assay).

| Binder | Neutralization titer SK50 [µg/mL] | SK50 titer [µg/mL] |
| --- | --- | --- |
| B1 | > 40 | – |
| B6 | > 40 | – |
| B7 | > 40 | – |
| B8 | > 40 | – |
| B9 | > 40 | – |
| B5 | > 40 | – |
| B10 | > 40 | – |
| B3 | > 40 | – |
| B4 | > 40 | > 40 |
| B11 | > 40 | – |

What follows are binders tested against HA of virus A/Hiroshima/52/2005 (H3N2) (influenza A virus (H3N2)) (assay: cell-based or functional assay).

| Binder | Neutralization titer SK50 [µg/mL] | SK50 titer [µg/mL] |
| --- | --- | --- |
| B1 | > 40 | – |
| B6 | 4.27 | – |
| B7 | 28.3 | – |
| B8 | 13.6 | – |
| B9 | 8.84 | – |
| B10 | 3.54 | – |
| B3 | 3.26 | – |
| B4 | 13 | 13 |
| B11 | 8.45 | – |

The binders below were run against HA of virus A/Wisconsin/67/2005 (H3N2) (influenza A virus (H3N2)) (assay: cell-based or functional assay).

| Binder | Neutralization titer SK50 [µg/mL] | SK50 titer [µg/mL] |
| --- | --- | --- |
| B1 | > 40 | – |
| B6 | 5.31 | – |
| B7 | 23.8 | – |
| B8 | 2.82 | – |
| B9 | 1.77 | – |
| B5 | 1.77 | – |
| B10 | 3.26 | – |
| B3 | 1.8 | – |
| B4 | 11.9 | 11.9 |
| B11 | 6.03 | – |

What follows are binders tested against HA of virus A/New Caledonia/20/1999 (H1N1) (influenza A virus (H1N1)) (assay: cell-based or functional assay).

| Binder | Neutralization titer SK50 [µg/mL] |
| --- | --- |
| B1 | > 40 |
| B6 | > 40 |
| B7 | > 40 |
| B8 | > 40 |
| B9 | > 40 |
| B10 | > 40 |
| B3 | > 40 |
| B4 | > 40 |
| B11 | > 40 |

Target: 3 H1N1 strains (1999-2007)
Test: cell-based or functional assay
Remark: another data set of the same source

| Binder | SK50 titer [µg/mL] |
| --- | --- |
| B4 | > 40 |

What follows are binders tested against HA of virus A/Mallard/Netherlands/12/2000 (H7N3) (influenza A virus (H7N3)) (assay: cell-based or functional assay).

| Binder | Neutralization titer SK50 [µg/mL] | SK50 titer [µg/mL] |
| --- | --- | --- |
| B1 | > 40 | – |
| B6 | > 40 | – |
| B7 | > 40 | – |
| B8 | > 40 | – |
| B9 | > 40 | – |
| B5 | > 40 | – |
| B10 | > 40 | – |
| B3 | > 40 | – |
| B4 | > 40 | > 40 |
| B11 | > 40 | – |

The binders below were run against HA of virus A/Solomon Islands/IVR-145 (H1N1) (influenza A virus (H1N1)) (assay: cell-based or functional assay).

| Binder | Neutralization titer SK50 [µg/mL] |
| --- | --- |
| B1 | > 40 |
| B6 | > 40 |
| B7 | > 40 |
| B8 | > 40 |
| B9 | > 40 |
| B10 | > 40 |
| B3 | > 40 |
| B4 | > 40 |
| B11 | > 40 |
